Reference: publication PMC7321188

Experiments:
Details in all cases: remark: other sources report otherwise
[1] = biological target: G2019S LRRK2-GFP (Parkinson's disease mutant of Leucine-Rich Repeat Kinase 2, GFP fusion) (UniProt Q5S007); assay: fluorescence fluctuation spectroscopy (number and brightness) by TIRF microscopy; TIRF, near the plasma membrane of live differentiated SH-SY5Y cells; brightness normalised to monomeric GFP
[2] = biological target: G2019S LRRK2-GFP (Parkinson's disease mutant of Leucine-Rich Repeat Kinase 2, GFP fusion) (UniProt Q5S007); assay: fluorescence fluctuation spectroscopy (number and brightness + photon counting histogram); two-photon confocal, cytosol of live differentiated SH-SY5Y cells at 37 °C; brightness normalised to monomeric GFP; LRRK2-GFP below 300 nM
[3] = biological target: WT LRRK2-GFP (Leucine-Rich Repeat Kinase 2, wild type, GFP fusion) (UniProt Q5S007); assay: fluorescence fluctuation spectroscopy (number and brightness) by TIRF microscopy; TIRF, near the plasma membrane of live differentiated SH-SY5Y cells; brightness normalised to monomeric GFP

With “G2019S LRRK2-GFP (Parkinson's disease mutant of Leucine-Rich Repeat Kinase 2, GFP fusion), Q5S007 1-2527” as the substance, how does the normalized brightness (sample over the monomer control) [1] read?
Its normalized brightness (sample over the monomer control) is 2.5.

And the normalized brightness (sample over the monomer control) [2]?
The normalized brightness (sample over the monomer control) was 2.1.

For “WT LRRK2-GFP (Leucine-Rich Repeat Kinase 2, wild type, GFP fusion), Q5S007 1-2527”, which normalized brightness (sample over the monomer control) [3] is on record?
The normalized brightness (sample over the monomer control) was 2.5.
